Assay results taken from US20230407373A1 (priority 2020, published 2023).

B1: ATXN2 (protein, UniProt Q99700 1-1313, looked up)
Ataxin-2: MRSAAAAPRSPAVATESRRFAAARWPGWRSLQRPARRSGRGGGGAAPGPYPSAAPPPPGPGPPPSRQSSPPSASDCFGSNGNGGGAFRPGSRRLLGLGGPPRPFVVLLLPLASPGAPPAAPTRASPLGARASPPRSGVSLARPAPGCPRPACEPVYGPLTMSLKPQQQQQQQQQQQQQQQQQQQQQQQPPPAAANVRKPGGSGLLASPAAAPSPSSSSVSSSSATAPSSVVAATSGGGRPGLGRGRNSNKGLPQSTISFDGIYANMRMVHILTSVVGSKCEVQVKNGGIYEGVFKTYSPKCDLVLDAAHEKSTESSSGPKREEIMESILFKCSDFVVVQFKDMDSSYAKRDAFTDSAISAKVNGEHKEKDLEPWDAGELTANEELEALENDVSNGWDPNDMFRYNEENYGVVSTYDSSLSSYTVPLERDNSEEFLKREARANQLAEEIESSAQYKARVALENDDRSEEEKYTAVQRNSSEREGHSINTRENKYIPPGQRNREVISWGSGRQNSPRMGQPGSGSMPSRSTSHTSDFNPNSGSDQRVVNGGVPWPSPCPSPSSRPPSRYQSGPNSLPPRAATPTRPPSRPPSRPSRPPSHPSAHGSPAPVSTMPKRMSSEGPPRMSPKAQRHPRNHRVSAGRGSISSGLEFVSHNPPSEAATPPVARTSPSGGTWSSVVSGVPRLSPKTHRPRSPRQNSIGNTPSGPVLASPQAGIIPTEAVAMPIPAASPTPASPASNRAVTPSSEAKDSRLQDQRQNSPAGNKENIKPNETSPSFSKAENKGISPVVSEHRKQIDDLKKFKNDFRLQPSSTSESMDQLLNKNREGEKSRDLIKDKIEPSAKDSFIENSSSNCTSGSSKPNSPSISPSILSNTEHKRGPEVTSQGVQTSSPACKQEKDDKEEKKDAAEQVRKSTLNPNAKEFNPRSFSQPKPSTTPTSPRPQAQPSPSMVGHQQPTPVYTQPVCFAPNMMYPVPVSPGVQPLYPIPMTPMPVNQAKTYRAVPNMPQQRQDQHHQSAMMHPASAAGPPIAATPPAYSTQYVAYSPQQFPNQPLVQHVPHYQSQHPHVYSPVIQGNARMMAPPTHAQPGLVSSSATQYGAHEQTHAMYACPKLPYNKETSPSFYFAISTGSLAQQYAHPNATLHPHTPHPQPSATPTGQQQSQHGGSHPAPSPVQHHQHQAAQALHLASPQQQSAIYHAGLAPTPPSMTPASNTQSPQNSFPAAQQTVFTIHPSHVQPAYTNPPHMAHVPQAHVQSGMVPSHPTAHAPMMLMTTQPPGGPQAALAQSALQPIPVSTTAHFPYMTHPSVQAHHQQQL
B2: SPATS2 (protein, UniProt Q86XZ4 1-545, looked up)
Spermatogenesis-associated …: MSRKQNQKDSSGFIFDLQSNTVLAQGGAFENMKEKINAVRAIVPNKSNNEIILVLQHFDNCVDKTVQAFMEGSASEVLKEWTVTGKKKNKKKKNKPKPAAEPSNGIPDSSKSVSIQEEQSAPSSEKGGMNGYHVNGAINDTESVDSLSEGLETLSIDARELEDPESAMLDTLDRTGSMLQNGVSDFETKSLTMHSIHNSQQPRNAAKSLSRPTTETQFSNMGMEDVPLATSKKLSSNIEKSVKDLQRCTVSLARYRVVVKEEMDASIKKMKQAFAELESCLMDREVALLAEMDKVKAEAMEILLSRQKKAELLKKMTHVAVQMSEQQLVELRADIKHFVSERKYDEDLGRVARFTCDVETLKKSIDSFGQVSHPKNSYSTRSRCSSVTSVSLSSPSDASAASSSTCASPPSLTSANKKNFAPGETPAAIANSSGQPYQPLREVLPGNRRGGQGYRPQGQKSNDPMNQGRHDSMGRYRNSSWYSSGSRYQSAPSQAPGNTIERGQTHSAGTNGTGVSMEPSPPTPSFKKGLPQRKPRTSQTEAVNS
B3: ZC3H7A: host protein, UniProt Q8IWRD (protein, UniProt Q8IWR0 1-971, looked up)
Zinc finger CCCH …: MSNVSEERRKRQQNIKEGLQFIQSPLSYPGTQEQYAVYLRALVRNLFNEGNDVYREHDWNNSISQYTEALNIADYAKSEEILIPKEIIEKLYINRIACYSNMGFHDKVLEDCNIVLSLNASNCKALYRKSKALSDLGRYKKAYDAVAKCSLAVPQDEHVIKLTQELAQKLGFKIRKAYVRAELSLKSVPGDGATKALNHSVEDIEPDLLTPRQEAVPVVSLPAPSFSHEVGSELASVPVMPLTSILPLQVEESALPSAVLANGGKMPFTMPEAFLDDGDMVLGDELDDLLDSAPETNETVMPSALVRGPLQTASVSPSMPFSASLLGTLPIGARYAPPPSFSEFYPPLTSSLEDFCSSLNSFSMSESKRDLSTSTSREGTPLNNSNSSLLLMNGPGSLFASENFLGISSQPRNDFGNFFGSAVTKPSSSVTPRHPLEGTHELRQACQICFVKSGPKLMDFTYHANIDHKCKKDILIGRIKNVEDKSWKKIRPRPTKTNYEGPYYICKDVAAEEECRYSGHCTFAYCQEEIDVWTLERKGAFSREAFFGGNGKINLTVFKLLQEHLGEFIFLCEKCFDHKPRMISKRNKDNSTACSHPVTKHEFEDNKCLVHILRETTVKYSKIRSFHGQCQLDLCRHEVRYGCLREDECFYAHSLVELKVWIMQNETGISHDAIAQESKRYWQNLEANVPGAQVLGNQIMPGFLNMKIKFVCAQCLRNGQVIEPDKNRKYCSAKARHSWTKDRRAMRVMSIERKKWMNIRPLPTKKQMPLQFDLCNHIASGKKCQYVGNCSFAHSPEEREVWTYMKENGIQDMEQFYELWLKSQKNEKSEDIASQSNKENGKQIHMPTDYAEVTVDFHCWMCGKNCNSEKQWQGHISSEKHKEKVFHTEDDQYCWQHRFPTGYFSICDRYMNGTCPEGNSCKFAHGNAELHEWEERRDALKMKLNKARKDHLIGPNDNDFGKYSFLFKDLN
B4: ACLY (protein, UniProt P53396 1-1101, looked up)
ATP-citrate synthase: MSAKAISEQTGKELLYKFICTTSAIQNRFKYARVTPDTDWARLLQDHPWLLSQNLVVKPDQLIKRRGKLGLVGVNLTLDGVKSWLKPRLGQEATVGKATGFLKNFLIEPFVPHSQAEEFYVCIYATREGDYVLFHHEGGVDVGDVDAKAQKLLVGVDEKLNPEDIKKHLLVHAPEDKKEILASFISGLFNFYEDLYFTYLEINPLVVTKDGVYVLDLAAKVDATADYICKVKWGDIEFPPPFGREAYPEEAYIADLDAKSGASLKLTLLNPKGRIWTMVAGGGASVVYSDTICDLGGVNELANYGEYSGAPSEQQTYDYAKTILSLMTREKHPDGKILIIGGSIANFTNVAATFKGIVRAIRDYQGPLKEHEVTIFVRRGGPNYQEGLRVMGEVGKTTGIPIHVFGTETHMTAIVGMALGHRPIPNQPPTAAHTANFLLNASGSTSTPAPSRTASFSESRADEVAPAKKAKPAMPQDSVPSPRSLQGKSTTLFSRHTKAIVWGMQTRAVQGMLDFDYVCSRDEPSVAAMVYPFTGDHKQKFYWGHKEILIPVFKNMADAMRKHPEVDVLINFASLRSAYDSTMETMNYAQIRTIAIIAEGIPEALTRKLIKKADQKGVTIIGPATVGGIKPGCFKIGNTGGMLDNILASKLYRPGSVAYVSRSGGMSNELNNIISRTTDGVYEGVAIGGDRYPGSTFMDHVLRYQDTPGVKMIVVLGEIGGTEEYKICRGIKEGRLTKPIVCWCIGTCATMFSSEVQFGHAGACANQASETAVAKNQALKEAGVFVPRSFDELGEIIQSVYEDLVANGVIVPAQEVPPPTVPMDYSWARELGLIRKPASFMTSICDERGQELIYAGMPITEVFKEEMGIGGVLGLLWFQKRLPKYSCQFIEMCLMVTADHGPAVSGAHNTIICARAGKDLVSSLTSGLLTIGDRFGGALDAAAKMFSKAFDSGIIPMEFVNKMKKEGKLIMGIGHRVKSINNPDMRVQILKDYVRQHFPATPLLDYALEVEKITTSKKPNLILNVDGLIGVAFVDMLRNCGSFTREEADEYIDIGALNGIFVLGRSMGFIGHYLDQKRLKQGLYRHPWDDISYVLPEHMSM
B5: RBMS2 (protein, UniProt Q15434 1-407, looked up)
RNA-binding motif, …: MLLSVTSRPGISTFGYNRNNKKPYVSLAQQMAPPSPSNSTPNSSSGSNGNDQLSKTNLYIRGLQPGTTDQDLVKLCQPYGKIVSTKAILDKTTNKCKGYGFVDFDSPSAAQKAVTALKASGVQAQMAKQQEQDPTNLYISNLPLSMDEQELEGMLKPFGQVISTRILRDTSGTSRGVGFARMESTEKCEAIITHFNGKYIKTPPGVPAPSDPLLCKFADGGPKKRQNQGKFVQNGRAWPRNADMGVMALTYDPTTALQNGFYPAPYNITPNRMLAQSALSPYLSSPVSSYQRVTQTSPLQVPNPSWMHHHSYLMQPSGSVLTPGMDHPISLQPASMMGPLTQQLGHLSLSSTGTYMPTAAAMQGAYISQYTPVPSSSVSVEESSGQQNQVAVDAPSEHGVYSFQFNK
B6: HNRNPA3 (protein, UniProt P51991 1-378, looked up)
Heterogeneous nuclear …: MEVKPPPGRPQPDSGRRRRRRGEEGHDPKEPEQLRKLFIGGLSFETTDDSLREHFEKWGTLTDCVVMRDPQTKRSRGFGFVTYSCVEEVDAAMCARPHKVDGRVVEPKRAVSREDSVKPGAHLTVKKIFVGGIKEDTEEYNLRDYFEKYGKIETIEVMEDRQSGKKRGFAFVTFDDHDTVDKIVVQKYHTINGHNCEVKKALSKQEMQSAGSQRGRGGGSGNFMGRGGNFGGGGGNFGRGGNFGGRGGYGGGGGGSRGSYGGGDGGYNGFGGDGGNYGGGPGYSSRGGYGGGGPGYGNQGGGYGGGGGYDGYNEGGNFGGGNYGGGGNYNDFGNYSGQQQSNYGPMKGGSFGGRSSGSPYGGGYGSGGGSGGYGSRRF
B7: PCBP2 (protein, UniProt Q15366 1-365, looked up)
Poly(rC)-binding protein 2: MDTGVIEGGLNVTLTIRLLMHGKEVGSIIGKKGESVKKMREESGARINISEGNCPERIITLAGPTNAIFKAFAMIIDKLEEDISSSMTNSTAASRPPVTLRLVVPASQCGSLIGKGGCKIKEIRESTGAQVQVAGDMLPNSTERAITIAGIPQSIIECVKQICVVMLETLSQSPPKGVTIPYRPKPSSSPVIFAGGQDRYSTGSDSASFPHTTPSMCLNPDLEGPPLEAYTIQGQYAIPQPDLTKLHQLAMQQSHFPMTHGNTGFSGIESSSPEVKGYWGLDASAQTTSHELTIPNDLIGCIIGRQGAKINEIRQMSGAQIKIANPVEGSTDRQVTITGSAASISLAQYLINVRLSSETGGMGSS

Key:
[1] = tested on: HCoV-OC43 gRNA and sgRNA; assay type: binding; conditions: for target (unweighted spectral count, OC43 Probe II capture): type n_36_v, FDR<10%; for target (unweighted spectral count, OC43 Probe II capture) / target (unweighted spectral count): tested against no-probe control; for target (unweighted spectral count, OC43 Probe II) / background (unweighted spectral count, no-probe control): type n_48_v, 48 hpi; for target (unweighted spectral count, OC43 Probe II): OC43 Probe II capture on infected cells; for background (unweighted spectral count, no-probe control): no-probe control on infected cells; for target (unweighted spectral count): OC43 Probe II, 24 hpi (type n_24_v), infected cells
[2] = tested on: SARS-CoV-2 gRNA and sgRNAs; assay type: binding; conditions: for target (unweighted spectral count in RNP capture): Probe II capture, LC-MS/MS LFQ; for background (unweighted spectral count in control): no-probe control pull-down, used as background for Probe II; for target (unweighted spectral count of the protein in the RNP capture experiment): LC-MS/MS label-free quantification, probe pool not given; for back-ground (unweighted spectral count of the protein in the control experiment): protein background of the control (e.g. no-probe) experiment

| Molecule | target (unweighted spectral count, OC43 Probe II capture) ([1]; 36 hpi) | target (unweighted spectral count, OC43 Probe II) [1] | background (unweighted spectral count, no-probe control) [1] | target (unweighted spectral count in RNP capture) [2] | background (unweighted spectral count in control) [2] | target (unweighted spectral count of the protein in the RNP capture experiment) [2] | back-ground (unweighted spectral count of the protein in the control experiment) [2] | target (unweighted spectral count) [1] | target (spectral count) ([1]; type s_36_m, HCoV-OC43-infected HCT-8 cells, 36 hpi, Probe II) | background (spectral count) ([1]; type s_36_m, uninfected-probe control, 36 hpi, Probe II) |
| --- | --- | --- | --- | --- | --- | --- | --- | --- | --- | --- |
| B1 | 4 | 6 | 1 | 22 | 1 |  |  |  |  |  |
| B2 |  |  |  |  |  | 5 | 1 |  |  |  |
| B3 | 9 | 9 | 1 | 14 | 1 |  |  | 8 | 9 | 1 |
| B4 |  |  |  |  |  | 6 | 1 |  |  |  |
| B5 | 4 |  |  | 14 | 1 |  |  |  |  |  |
| B6 | 25 |  |  | 51 | 1 |  |  | 22 |  |  |
| B7 |  |  |  |  | 1 |  |  | 10 |  |  |
